According to patent US20230181719A1, “NGR CONJUGATES AND USES THEREOF” (OSPEDALE SAN RAFFAELE S.R.L., priority 2020, published 2023):
Starred links: 1 amine or outer side, 2 acyl side, 3 side chain; linkers in the order of their positions; H or OH if unused. Positions of bridges follow the written chain, without caps; N, C: chain ends. Non-standard residues stand in square brackets, D forms with d. Residues, ends and D or L forms follow the SMILES beside them. No end group written: not given here. βAsp = O=C(O)[C@H](CC(=O)[*:2])N[*:1]

Key:
[1] = Peptide deamidation stability upon incubation at 37° C., by mass spectrometry; type: physicochemical; conditions: pH 7.4
Method: FIG. 11. The peptide SCNGRCGVRY (SEQ ID NO: 3) has a lower propensity to deamidate than CNGRCGVRY (SEQ ID NO:4) in a physiological buffer at […], but not in ammonium bicarbonate buffer at pH 8.5. A and B) MS analysis of SCNGRCGVRY (SEQ ID NO: 3) and CNGRCGVRY (SEQ ID NO:4) after incubation at 37° C. for the indicated time in 50 mM sodium phosphate buffer, pH 7.4 (PBS) or 0.1 M ammonium bicarbonate buffer, pH 8.5 (Ambic). The values +0, + 1, -17 reported in the plot correspond to the difference between the observed and the expected molecular mass of peptides expressed in daltons. MS analysis was performed using the LTQ-Orbitrap mass spectrometer (Thermo Scientific).
To assess whether the addition of the serine residue to CNGRCG (SEQ ID NO:1) might affect its deamidation propensity inventors synthetized the SCNGRCGVRY (SEQ ID NO: 3) and CNGRCGVRY (SEQ ID NO:4) peptides and studied their stability upon incubation at 37° C. in PBS, pH 7.4, by mass spectrometry.
A similar experiment was then performed with peptides in 0.1 M ammonium bicarbonate, pH 8.5, a condition known to force Asn deamidation (Curnis et al. 2006). […] Furthermore, the succinimide-derivative of S-NGR-TNF, when formed, is more prone to hydrolysis.

[2] = molecular target: αvβ3 (Homo sapiens, UniProt P05106+P06756); assay: Competitive binding of acetyl-CisoDGRCG/streptavidin-peroxidase to integrin-coated microtiterplates; conditions: αvβ3, αvβ5, αvβ6, αvβ8 and α5β1 (all integrins)
Excerpt: To assess whether the isoDGR derivative of S-NGR-TNF and NGR-TNF targeting domains can recognize integrins with similar affinities inventors then analysed the binding of SCisoDGRCGVRY (SEQ ID NO: 17), CisoDGRCGVRY and acetyl-CisoDGRCGVRY to αvβ3, αvβ5, αvβ6 αvβ8 and α5β1 integrins using a competitive binding assay previously described (Curnis et al. 2010). […] As expected […] (SEQ ID NO: 3) and […] […] Considering that human NGR-TNF contains acetylated and non-acetylated forms and that both CNGRC (SEQ ID NO:5) and acetyl-CNGRC can undergo deamidation (Curnis et al. 2010), inventors can conclude that the isoDGR derivative of S-NGR-TNF, if formed, behave in a manner similar to those of the isoDGR derivatives of NGR-TNF in terms of integrin recognition.

[3] = test system: L-M cells; assay: LM-cells cytolytic assay (MTT); type: cell-based; conditions: actinomycin D, 20 h, murine proteins
Excerpt: FIG. 8. Biochemical and biological characterization of murine S-NGR-TNF and NGR-TNF. A) SDS-PAGE under reducing (βMe +) and non-reducing conditions (βMe -) of murine S-NGR-TNF, NGR-TNF and TNF. Arrows: bands corresponding to monomeric subunits (mon) and reducible dimers (dim). B) Representative mass spectra of murine NGR-TNF, TNF and S-NGR-TNF as determined by a Q Exactive HF mass spectrometer. Expected average masses are shown. C) Cytotoxic activity of TNF, NGR-TNF and S-NGR-TNF against L-M cells. L-M cells were incubated in DMEM medium supplemented with 2 mM glutamine, 100 U/ml penicillin, 100 µg/ml streptomycin, 0.25 µg/ml amphotericin-B, 10% fetal bovine serum, 2 µg/ml actinomycin D and TNF, NGR-TNF or S-NGR-TNF at the indicated doses (20 h at 37° C., 5% CO2). Cell viability was quantified by standard 3-(4,5-dimethylthiazol-2-yl)-2,5-diphenyltetrazolium bromide (MTT) assay. D) Binding of TNF, NGR-TNF and S-NGR-TNF to sTNF-R1 (Etanercept). Microtiterplates were precoated with or without the indicated amount of sTNF-R1 (for 16 h), washed with PBS, blocked with PBS containing 3% milk, 1% BSA (binding buffer, 1 h) and incubated with the indicated amounts of TNF, NGR-TNF or S-NGR-TNF diluted in binding buffer (for 1.5 h). The binding of each protein to sTNF-R1 was then detected using a polyclonal anti-murine TNF (IP301, 5 µg/ml in binding buffer, 1 h) followed by a polyclonal goat anti-rabbit antibody conjugated with horseradish peroxidase (1:1000 in binding buffer, 1 h) and o-phenylendiammine as chromogenic substrate.
To assess whether the addition of a serine residue to NGR-TNF affects its capability to recognize the TNF receptors and, consequently, its biological activity, inventors then analyzed the cytotoxic activity of TNF, NGR-TNF and S-NGR-TNF in the LM-cells cytolytic assay.

[4] = molecular target: T1, αvβ6 integrin (UniProt P06756 31-992; P18564 22-707, limits assumed); assay: competitive binding assay, integrin-coated plates; competitor probe acetyl-CisoDGRCG/streptavidin-peroxidase
T1 construct: Coated on microtiter plates
Excerpt: (§1) To assess whether the isoDGR derivative of S-NGR-TNF and NGR-TNF targeting domains can recognize integrins with similar affinities inventors then analysed the binding of SCiso[…] (SEQ ID NO: 17), Ciso[…] and acetyl-Ciso[…] to αvβ3, αvβ5, αvβ6 αvβ8 and α5β1 integrins using a competitive binding assay previously described (Curnis et al. 2010). […] Considering that human NGR-TNF contains acetylated and non-acetylated forms and that both CNGRC (SEQ ID NO:5) and acetyl-CNGRC can undergo deamidation (Curnis et al. 2010), inventors can conclude that the isoDGR derivative of S-NGR-TNF, if formed, behave in a manner similar to those of the isoDGR derivatives of NGR-TNF in terms of integrin recognition.
(§2) a) Competitive binding of acetyl-CisoDGRCG/streptavidin-peroxidase to integrins. The binding assay was performed using integrin-coated microtiterplates as previously described (Curnis et al. 2013). b) n, number of independent experiments, each in duplicate.

[5] = molecular target: T2, αvβ5 integrin (UniProt P06756 31-992; P18084 24-719, limits assumed); assay: as above
T2 construct: Coated on microtiter plates
Excerpt: as §1, §2

[6] = molecular target: T3, α5β1 integrin (UniProt P08648 42-995; P05556 21-728, limits assumed); assay: as above
T3 construct: Coated on microtiter plates
Excerpt: as §1, §2

[7] = molecular target: T4, αvβ8 integrin (UniProt P06756 31-992; P26012 43-684, limits assumed); assay: as above
T4 construct: Coated on microtiter plates
Excerpt: as §1, §2

[8] = molecular target: T5, αvβ3 integrin (UniProt P06756 31-992; P05106 27-718, limits assumed); assay: as above
T5 construct: Coated on microtiter plates
Excerpt: as §1, §2

[9] = molecular target: T6, recombinant human histidine-tagged CD13 (human, UniProt P15144 69-967, limits assumed); assay: CD13 enzyme kinetics inhibition, 60 mM potassium phosphate buffer, pH 7.4
T6 construct: Histidine tag present; also called aminopeptidase N
Excerpt: FIG. 10. The peptide […] (SEQ ID NO: 3) inhibits CD13 enzymatic activity more efficiently than […] (SEQ ID NO:4) and acetylated-[…]. A) Steady state kinetic analysis of CD13 in the presence of various amounts of L-alanine p-nitroanilide substrate and […] (SEQ ID NO: 3), […] (SEQ ID NO:4), or acetylated-[…] (ac-[…]) (SEQ ID NO:42). A representative plot of 3-4 independent experiments, showing the initial velocity (V₀) versus substrate concentration (mean ± SE of four technical replicates), is shown. The assays were performed with recombinant human histidine-tagged CD13 (200-300 ng/ml) in 60 mM potassium phosphate buffer, pH 7.4, at room temperature. The kinetic of p-nitroanilide formation was monitored spectrophotometrically (A405 nm) for 5-10 min. The inhibitory constant (Ki) reported in each plot is the result of the 3-4 independent experiments (mean ± SE). B) Double reciprocal plots of the experiments reported in panel A.
Each experiment was performed with 4 technical replicates

[10] = molecular target: T6, recombinant human histidine-tagged CD13; assay: CD13 enzyme kinetics inhibition, 50 mM Tris-HCl buffer, pH 7.4

Ki [4] [nM]	Ki [5] [nM]	Ki [6] [nM]	Ki [7] [nM]	Ki [8] [nM]	Ki [9] [nM]	Ki [10] [nM]	Molecule	further results
–	–	–	–	–	–	–	CC(C)[C@H](NC(=O)CNC(=O)[C@@H]1CSSC[C@H](N)C(=O)N[C@@H](CC(N)=O)C(=O)NCC(=O)N[C@@H](CCCNC(=N)N)C(=O)N1)C(=O)N[C@@H](CCCNC(=N)N)C(=O)N[C@@H](Cc1ccc(O)cc1)C(=O)O [CNGRCGVRY, CNGRCGVRY (SEQ ID NO:4), reference compound] (H-CNGRCGVRY-OH; disulfide 1-5 (inferred); N-terminus and C-terminus assumed)	-17 Da form (succinimide intermediate of deamidation) ([1]; after 2 h at 37° C. in PBS): observed; +1 Da deamidation product (DGR/isoDGR) ([1]; after 32 h at 37° C. in PBS): observed; -17 Da form still present ([1]; after 32 h at 37° C. in PBS): a large amount of the -17 Da form was still present
–	–	–	–	–	–	–	CC(C)[C@H](NC(=O)CNC(=O)[C@@H]1CSSC[C@H](NC(=O)[C@@H](N)CO)C(=O)N[C@@H](CC(=O)O)C(=O)NCC(=O)N[C@@H](CCCNC(=N)N)C(=O)N1)C(=O)N[C@@H](CCCNC(=N)N)C(=O)N[C@@H](Cc1ccc(O)cc1)C(=O)O [SCDGRCGVRY, SCDGRCGVRY (SEQ ID NO:22)] (H-SCDGRCGVRY-OH; disulfide 2-6; N-terminus and C-terminus assumed)	affinity for integrins [2]: no or very low affinity
–	–	–	–	–	–	–	TNF: Murine tumor necrosis factor-α (SEQ ID NO: 15) [reference compound]	EC50 cytotoxic activity [3]: very similar
25	77	11	156	17	–	–	SC[βAsp]GRCGVRY (disulfide 2-6) [SCisoDGRCGVRY peptide]	–
> 10000	> 10000	> 10000	> 10000	> 10000	25000	6800	SCNGRCGVRY (disulfide 2-6, Synthetic peptide corresponding to the N-terminal region of human S-NGR-TNF) [SCNGRCGVRY peptide]	–
5500	779	4790	21400	3340	–	–	SCDGRCGVRY [SCDGRCGVRY peptide]	–
131	391	75	554	11	–	–	C[βAsp]GRCGVRY (disulfide 1-5) [CisoDGRCGVRY peptide]	–
–	–	–	–	–	50700	38100	Ac-CNGRCGVRY (disulfide 1-5) [acetylated-CNGRCGVRY peptide]	–
5	21	4	18	3	–	–	Ac-C[βAsp]GRCGVRY (disulfide 1-5) [acetyl-CisoDGRCGVRY peptide]	–
–	–	–	–	–	76500	35600	CNGRCGVRY (disulfide 1-5, Synthetic peptide corresponding to the N-terminal region of human NGR-TNF) [CNGRCGVRY peptide]	–
